The text below walks through data of patent US20200345810A1, “USE OF ALPHA-1-MICROGLOBULIN FOR PROTECTION OF BONE MARROW CELLS” (GUARD THERAPEUTICS INTERNATIONAL AB, priority 2017, published 2020).

Residue numbers refer to the chain shown, from its start. Names and notes keep the numbering of the source.

For series [1], the system named is bone marrow cells. Briefly: Bone marrow flow cytometry after 177Lu-DOTATATE exposure (radiation-induced damage). It is filed as in vivo, BALB/c mice. Conditions: 4 days. The protocol: (§1) Female BALB/c mice (Taconic, Denmark) at the age of 12 weeks were used in this study. Two groups (n=5-10) received a subcutaneous administration of either A1M (20 mg/kg) or vehicle buffer (10 mM Na-phosphate pH 7.4+0.15 M NaCl+12 mM histidine) followed by an intravenous (i.v.) injection, 30 minutes later, of ^177Lu-DOTATATE (150 MBq). A control group (n=5-10) received a subcutaneous administration of vehicle, followed by, 30 minutes after, an i.v. injections of NaCl. Animals were sacrificed 4 days post-injections.
After 4 days (post ^177Lu-DOTATATE administration), blood, for peripheral blood cell and reticulocyte count, was sampled from vena saphena, on non-anesthetized animals, in EDTA pre-coated vials (Microvette CB 300 K2E, Sarstedt, Nümbrecht, Germany) and placed on a rocking mixer in room temperature followed by analysis as described below. […]
Bone marrow cells were isolated by crushing femur in PBS containing 2% FCS (GIBCO, Waltham, Mass., USA) and passing them though a 70 um cell strainer to obtain single cell suspension. […] All experiments were performed on LSRFortessa (BD Biosciences) flow cytometry and analyzed with FlowJo software.
Bone marrow cellularity was counted from the single cell suspension using hematology analyzer SYSMEX KX-21 N.
A general note: In flow cytometry, cells or beads pass a laser one at a time.

Series [2] concerns peripheral blood cells. Kind of series: Peripheral blood reticulocyte count after 177Lu-DOTATATE exposure. It is filed as in vivo, BALB/c mice. Conditions: A1M 20 mg/kg subcutaneous 30 minutes prior to 150 MBq 177Lu-DOTATATE i.v.; 4 days; FIG. 2B. The protocol:
as §1
After 4 days (post ^177Lu-DOTATATE administration), blood, for peripheral blood cell and reticulocyte count, was sampled from vena saphena, on non-anesthetized animals, in EDTA pre-coated vials (Microvette CB 300 K2E, Sarstedt, Nümbrecht, Germany) and placed on a rocking mixer in room temperature followed by analysis as described below. Thereafter the animals were anaesthetized using isoflurane, sacrificed by cervical dislocation and femur (left and right) sampled and placed in PBS, pH 7.4 in a 24 well plate standing on wet ice.
Following collection of peripheral blood SYSMEX KX-21N hematology analyzer was used for determining Blood parameters. Reticulocyte count was determined using LSR Fortessa or Canto II flow cytometry using Retic-Count (BD Biosciences).

In series [3] the test system is erythroid precursors from DBA patients. Briefly: Expansion of CD34+ erythroid precursors from peripheral blood (manual cell count). Conditions: 5 μM A1M every 2-3 days, 7-8 days; mutations in RPS19, RPS26, RPL35a; FIG. 4D. It is filed as cell-based, human. The protocol: (§2) FIG. 4: A1M treatment improves expansion of erythroid cells from a murine DBA model and patients. CD117 (Kit)+ bone marrow cells were treated with Doxycycline to induce Rps19 deficiency. Twenty four hours after Doxycycline administration, cells were treated with drugs interfering with iron or heme availability. The ATP measuring platform CellTiter Glo was used to monitor viable cells after 5 days of expansion. In A) a schematic picture of the drug screen is shown. B) Proliferation of bone marrow cells (as described in A) from Rps19 inducible mice treated with respective drug compounds interfering with iron or heme availability is presented. Shown is also a schematic picture of drug activity where A1M is shown to have intracellular effects by reducing unbound heme in erythroblast. The cells were cultured in erythroid promoting media for 5 days. Kruskal-Wallis non parametric test with Dunn's multiple comparisons test was used for statistical analysis, and genotypes were compared to respective control, separately. p-values: *≤005, **≤001, ***≤0001, ****≤00001. C) Concentration of free unbound intracellular heme in Kit+ bone marrow cells from the Rps19 deficient mouse expanded in erythroid culture with A1M or vehicle for 72 hours. Mann Whitney non parametric analysis was employed for statistical analysis within each genotype. […]

Series [4] deals with cells from healthy subjects. Described as above. Conditions: 5 μM A1M every 2-3 days, 7-8 days; FIG. 4D. The series is classed as cell-based, human. The protocol:
as §2

The conditions of series [5]: general background on A1M secreted into the blood stream; cited from earlier work.
For series [6], the system named is WT cells. Briefly: Drug screen: proliferation of Kit+ bone marrow cells in erythroid culture (CellTiter Glo). Conditions: 5 days expansion; FIG. 4B. The series is classed as cell-based, mice. The protocol:
as §2, with “genotype. D) Expansion of CD34+ erythroid precursors from peripheral blood of DBA patients with mutations in RPS19, RPL35a and RPS26, or healthy controls treated with A1M or vehicle in erythroid promoting media for 7 days.” for “genotype.”
(§3) The drugs administered 24 hours after Doxycycline administration were A1M (supplied by A1M Pharma AB, Sweden), N-methyl mesoporphyrin IX (AH Diagnostics, Denmark), Succinylacetone, hemin, Deferoxamine, Ferrostatin and N-acetyl-L-cystein and hemopexin (Sigma-Aldrich). Cell expansion 5 days after drug administration was measured using CellTiter Glo (Promega, US), which measures the number of viable and metabolically active cells in culture based on quantitation of the ATP present. Plates were read on Victor 3 Multilabel counter (PerkinElmer, US).
(Cellular ATP, detected with luciferase, serves as a proxy for viable cell number.)

For series [7], the system named is Rps19 deficient erythroid precursors. The description is as above. The series is classed as cell-based, mice. Conditions: 5 days expansion; A1M at 5 and 10 μM; FIG. 4B. The protocol:
as §2, with “genotype. D) Expansion of CD34+ erythroid precursors from peripheral blood of DBA patients with mutations in RPS19, RPL35a and RPS26, or healthy controls treated with A1M or vehicle in erythroid promoting media for 7 days.” for “genotype.”
as §3

Series [8] has as its system Rps19 deficient erythroid cells. Kind of series: Free unbound intracellular heme in Kit+ bone marrow cells expanded in erythroid culture. Conditions: erythroid culture with A1M or vehicle for 72 hours; FIG. 4C. The series is classed as cell-based, mouse. The procedure:
as §2

Series [9] is described as follows: Solubility/stability and function of A1M mutation variants. The series is classed as physicochemical. Conditions: mutated A1M variants.

B1: alpha-1-microglobulin (protein, listed as Homo sapiens)
chain: GPVPTPPDNIQVQENFDISRIYGKWYNLAIGSTCPWLKKIMDRMTVSTLVLGEGATEAEISMTSTHWRKGVCEETSGAYEKTDTDGKFLYHKSKWDITMESYVVHTNYDEYAIFLTKKFSRHHGPTITAKLYGRAPQLRETLLQDFRVVAQGVGIPEDSIFTMADRGECVPGEQEPEPILIPR
modifications: Wildtype human A1M, no mutations
notes: Recombinant human A1M, variant RMC-035 corresponding to A1M (R66H+N17,96D), supplied by A1M Pharma AB
As for B1, the “percentage of viable reticulocytes in bone marrow” value in series [1] (A1M 20 mg/kg subcutaneous 30 minutes prior to 150 MBq 177Lu-DOTATATE i.v., FIG. 2A) is reported as “completely preserved reticulocyte population at the level of the non-radiation exposed control animals”. Also, in [1] (A1M 20 mg/kg subcutaneous 30 minutes prior to 150 MBq 177Lu-DOTATATE, FIG. 3), the “protection of the proerythroblast population” value is “displayed protection of the proerythroblast population”. Besides, the “percentage of viable reticulocytes in peripheral blood” value in series [2] is on record as “completely preserved reticulocyte population at the level of the non-radiation exposed control animals”. Moreover, in series [3], the “expansion of erythroid precursors from three DBA patients” value was “improved expansion”. Also, the “expansion of cells from healthy subjects” value in series [4] is on record as “no such trend was observed”. Besides, the “T½ of transport across the vessel walls to the extravascular compartment” value in series [5] is 2 to 3 min. The “proliferation of WT cells” value in series [6] is recorded as “No effect on proliferation”. Besides, in [7], the “proliferation of Rps19 deficient erythroid precursors” value is “increased proliferation”. For the same molecule, the “level of unbound intracellular heme” value in [8] was “significantly reduce the level of unbound intracellular heme back to WT levels”.

B2: hemopexin: mainly extracellular heme scavenger (Sigma-Aldrich) (protein, UniProt P02790 24-462, looked up)
Hemopexin: TPLPPTSAHGNVAEGETKPDPDVTERCSDGWSFDATTLDDNGTMLFFKGEFVWKSHKWDRELISERWKNFPSPVDAAFRQGHNSVFLIKGDKVWVYPPEKKEKGYPKLLQDEFPGIPSPLDAAVECHRGECQAEGVLFFQGDREWFWDLATGTMKERSWPAVGNCSSALRWLGRYYCFQGNQFLRFDPVRGEVPPRYPRDVRDYFMPCPGRGHGHRNGTGHGNSTHHGPEYMRCSPHLVLSALTSDNHGATYAFSGTHYWRLDTSRDGWHSWPIAHQWPQGPSAVDAAFSWEEKLYLVQGTQVYVFLTKGGYTLVSGYPKRLEKEVGTPHGIILDSVDAAFICPGSSRLHIMAGRRLWWLDLKSGAQATWTELPWPHEKVDGALCMEKSLGPNSCSANGPGLYLIHGPNLYCYSDVEKLNAAKALPQPQNVTSLLGCTH
With B2, in [7], the “proliferation of Rps19 deficient erythroid precursors” value is given as “no effect”.

B3: (M41K+R66H): A1M with point mutations M41K and R66H (protein, UniProt P02760 20-203, looked up, variant M41K R66H)
Alpha-1-microglobulin: GPVPTPPDNIQVQENFNISRIYGKWYNLAIGSTCPWLKKIKDRMTVSTLVLGEGATEAEISMTSTHWRKGVCEETSGAYEKTDTDGKFLYHKSKWNITMESYVVHTNYDEYAIFLTKKFSRHHGPTITAKLYGRAPQLRETLLQDFRVVAQGVGIPEDSIFTMADRGECVPGEQEPEPILIPRV
modifications: Alpha-1-microglobulin
For the molecule B3, in series [9], the “solubility and/or stability and function” value was “increased solubility and/or stability with maintained function”.

B4: (M41K+R66H+N17,96D): A1M with point mutations M41K, R66H and N17,96D (protein, UniProt P02760 20-203, looked up, variant M41K R66H N17D N96D)
Alpha-1-microglobulin: B3 Alpha-1-microglobulin with N17D, N96D
modifications: Alpha-1-microglobulin
notes: A1M with point mutations M41K, R66H and N17,96D
Consider B4, for which the “solubility and/or stability and function” value in [9] is recorded as “increased solubility and/or stability with maintained function”.

B5: (R66H+N17,96D): A1M with point mutations R66H and N17,96D; RMC-035 corresponds to this variant (protein, UniProt P02760 20-203, looked up, variant R66H N17D N96D)
Alpha-1-microglobulin: B3 Alpha-1-microglobulin with N17D, K41M, N96D
modifications: Alpha-1-microglobulin RMC-035
As to B5, the “solubility and/or stability and function” value in series [9] is on record as “increased solubility and/or stability with maintained function”.

B6: (M41K+N17,96D): A1M with point mutations M41K and N17,96D (protein, UniProt P02760 20-203, looked up, variant M41K N17D N96D)
Alpha-1-microglobulin: B3 Alpha-1-microglobulin with N17D, H66R, N96D
modifications: Alpha-1-microglobulin
notes: A1M with point mutations M41K and N17,96D
With B6, the “solubility and/or stability and function” value in series [9] is listed as “increased solubility and/or stability with maintained function”.
